{"source": "paper PMC9876794", "about": "(2022)", "binders": {"B1": {"name": "D021 (antibody, V domains shown)", "VH": "QVQLVESGGGVVQPGRSLRLSCAASGFTFSSYGMHWVRQAPGKGLEWVAVISYDGSNKYYADSVKGRFTISRDNSKNTLYLQMNSLRAEDTAVYYCAKAGQYGDYTHSGDYWGQGTLVTVSS", "VL": "DIQMTQSPSSLSASVGDRVTITCQASQDISNYLNWYQQKPGKAPKLLIYDASNLETGVPSRFSGSGSGTDFTFTISSLQPEDIATYYCQQYDNLPIAFGQGTRLEIK"}, "B2": {"name": "D055 (antibody, V domains shown)", "VH": "EVQLVESGGGLVQPGGSLRLSCAASGFTFSSYDMHWVRQATGKGLEWVSAIGTAGDTYYPGSVKGRFTISRENAKNSLYLQMNSLRAGDTAVYYCARGAMVRGVIMVFDYWGQGTLVTVSS", "VL": "not shown"}, "B3": {"name": "D097 (antibody, V domains shown)", "VH": "EVQLVQSGAEVKKPGESLKISCKGSGYSFTSYWIGWVRQMPGKGLEWMGIIYPGDSDTRYSPSFQGQVTISADKSISTAYLQWSSLKASDTAMYYCARLGDAGAFDIWGQGTMVTVSS", "VL": "QSVLTQPPSVSGAPGQRVTISCTGSSSNIGAGYDVHWYQQLPGTAPKLLIYGNSNRPSGVPDRFSGSKSGTSASLAITGLQAEDEADYYCQSYDSSLSGSKVFGGGTKLTVL"}, "B4": {"name": "C2694 (antibody, V domains shown)", "VH": "EVQLVESGGGLVQPGRSLRLSCAASGFTFDDYAMHWVRQAPGKGLEWVSGISWNSGSIGYADSVKGRFTISRDNAKNSLYLQMNSLRAEDTALYYCAKDSLLWYDSSGYYHYYYYGMDVWGQGTTVTVSS", "VL": "not shown"}, "B5": {"name": "D168 (antibody, V domains shown)", "VH": "EVQLVESGGGLVKPGGSLRLSCAASGFTFSSYSMNWVRQAPGKGLEWVSSISSSSSYIYYADSVKGRFTISRDNAKNSLYLQMNSLRAEDTAVYYCARDLGTAIVYVREKYYYGMDVWGQGTTVTVSS", "VL": "not shown"}, "B6": {"name": "D023 (antibody, V domains shown)", "VH": "EVQLVQSGAEVKKPGESLKISCKGSGYSFTSYWIGWVRQMPGKGLEWMGIIYPGDSDTRYSPSFQGQVTISADKSISTAYLQWSSLKASDTAMYYCAISYSGSYSGAFDIWGQGTMVTVSS", "VL": "not shown"}, "B7": {"name": "D182 (antibody, V domains shown)", "VH": "QVQLVESGGGVVQPGRSLRLSCAASGFTFSSYGMHWVRQAPGKGLEWVAVISYDGSNKYYADSVKGRFTISRDNSKNTLYLQMNSLRAEDTAVYYCAKATVLMVYAGFDYWGQGTLVTVSS", "VL": "NFMLTQPHSVSESPGKTVTISCTGSSGSIASNYVQWYQQRPGSAPTTVIYEDNQRPSGVPDRFSGSIDSSSNSASLTISGLKTEDEADYYCQSYDSSNRWVFGGGTKLTVL"}, "B8": {"name": "D071 (antibody, V domains shown)", "VH": "EVQLVESGGGLVQPGRSLRLSCTASGFTFGDYAMSWFRQAPGKGLEWLGFIKSKSYGGTTEYAASVKGRFTISREDSKSIAYLQMNSLKTEDTAVYYCTRTIFGVVHFDYWGQGTLVTVSS", "VL": "SYVLTQPPSVSVAPGKTARITCERNNIGSKSVHWYQQKPGRAPVLVIYYDSDRPSGIPERFSGSNSENTATLTISRVEAGDEADYYCQVWNSSSDHPVFGGGTKLTVL"}, "B9": {"name": "D052 (antibody, V domains shown)", "VH": "EVQLVESGGGLVQPGGSLRLSCAASGFTFSSYDMHWVRQATGKGLEWVSAIGTAGDTYYPGSVKGRFTISRENAKNSLYLQMNSLRAGDTAVYYCARVGYSLYGDYKSYWYFDLWGRGTLVTVSS", "VL": "not shown"}, "B10": {"name": "D028 (antibody, V domains shown)", "VH": "QVQLVQSGAEVKKPGASVKVSCKASGYTFISYYVHWVRQAPGQGLEWMGIINPSGGSTSYTQKFQGRVTMTRDTSTSTVYMELSSLRFEDTAVYYCATEGGMITENSSLHWGQGTLVTVSS", "VL": "DIQMTQSPSTLSASVGDRVTITCRASQSISSWLAWYQQKPGKAPKLLIYKASSLESGVPSRFSGSGSGTEFTLAISSLQPDEFATYYCQQYNSYPWTFGQGTKVEIK"}, "B11": {"name": "D016 (antibody, V domains shown)", "VH": "EVQLVESGGGLVQPGRSLRLSCAASGFTFDDYAMHWVRQAPGKGLEWVSGISWNSGSIGYADSVKGRFTISRDNAKNSLYLQMNSLRAEDMALYYCAKDAGIAAVNWYFDLWGRGTLVTVSS", "VL": "not shown"}, "B12": {"name": "D035 (antibody, V domains shown)", "VH": "B11 VH with M91T, A100T, G101V, I102A, A103G, A104L, V105P, N106Y", "VL": "not shown"}, "B13": {"name": "C2732 (antibody, V domains shown)", "VH": "EVQLVESGGGLVQPGRSLRLSCAASGFTFDDYAMHWVRQAPGKGLEWVSGISWNSGSIGYADSVKGRFTISRDNAKNSLYLQMNSLRAEDTALYYCAKDIGRIAEGYGMDVWGQGTTVTVSS", "VL": "QSALTQPASVSESPGQSITISCTGTSSDIGGYNYVSWYQQHPGKAPKLMIYEVSNRPSGVSNRFSGSKSGNTASLTISGLQAEDEADYYCSSYTSSSTVVFGGGTKLTVL"}, "B14": {"name": "D033 (antibody, V domains shown)", "VH": "QVQLVESGGGVVQPGRSLRLSCAASGFTFSYYAMHWVRQAPGKGLEWVAVISYDGINKYYADSVKGRFTFSRDNSKNTLYLQMNSLSAEDTAVYYCARPYCGGDCYRAPDYWGQGTLVTVSS", "VL": "QSVLTQEPSLTVSPGGTVTLTCGSSTGAVTSSHYPYWFQQKPGQVPRTLIYDTSNKHSWTPARFSGSLLGGKAALTLSGAQPEDEADYYCLLSYSGVRRVFGGGTKLTVL"}, "B15": {"name": "D160 (antibody, V domains shown)", "VH": "QVQLVQSGAEVKKPGASVKVSCKASGYTFTTYGFSWVRQAPGQGLEWMGWISGYNGNTHYAQKVQGRVTMTTDTSTTTAYMELRSLTYDDTAVYYCARAGDDEANAFDIWGQGTMVTVSS", "VL": "DIQMTQSPSTLSASVGDRVTITCRASQTISIWLAWYQQKPGKAPKLLIYKASKIQSGVPSRFSGSESGTEFTLTISSLQPDDFATYYCQQYNSYPLTFGGGTKVESK"}, "B16": {"name": "D143 (antibody, V domains shown)", "VH": "EVQLVESGGGLVQPGGSLRLSCAASGFTFSSYSMNWVRQAPGKGLEWVSYISSSSSTIYYADSVKGRFTISRDNAKNSLYLQMNSLRDEDTAVYYCASHYGAPTSYYYYGMDVWGQGTTVTVSS", "VL": "not shown"}, "B17": {"name": "C2691 (antibody, V domains shown)", "VH": "EVQLVESGGGLVQPGRSLRLSCAASGFTFDDYAMHWVRQAPGKGLEWVSGISWNSGSIGYADSVKGRFTISRDNAKNSLYLQMNSLRAEDTALYYCAKDNRLDTMVRGGRVDAFDIWGQGTMVTVSS", "VL": "not shown"}, "B18": {"name": "C2729 (antibody, V domains shown)", "VH": "QLQLQESGPGLVKPSETLSLTCTVSGGSISSSSYYWGWIRQPPGKGLEWIGSIYYSGSTYYNPSLKSRVTISVDTSKNQFSLKLSSVTAADTAVYYCARRWIQLWSGFDPWGQGTLVTVSS", "VL": "DIQLTQSPSFLSASVGDRVTITCRASQGISSYLAWYQQKPGKAPKLLIYAASTLQSGVPSRFSGSGSGTEFTLTISSLQPEDFATYYCQQLNSYSITFGQGTRLEIK"}, "B19": {"name": "D142 (antibody, V domains shown)", "VH": "QVQLVESGGGVVQPGRSLRLSCAASGFTFSSYGMHWVRQAPGKGLEWVAVISYDGSNKYYADSVKGRFTISRDNSKNTLYLQMNSLRAEDTAVYYCAKKPTMYYYDSSGYYYFDYWGQGTLVTVSS", "VL": "QFVLTQPPSVSGAPGQRVTISCTGSSSNIGAGYDVHWYQQLPGTAPKLLIYGNSNRPSGVPDRFSGSKSGTSASLAITGLQAEDEADYYCQSYDSSLSGYVFGTGTKVTVL"}, "B20": {"name": "D072 (antibody, V domains shown)", "VH": "QVQLQQWGAGLLKPSETLSLTCAVYGGSFSGHYWSWIRQSPGKGLEWIGEINHSGDTNYNASLKSRVTISVDTSKNQFSLQMTSVTAADTAVYYCARRRGIVLMRAVDVWGKGTTVTVSS", "VL": "EIVMTQSPATLSLSPGERATLSCRASQSVSNNYFSWYQQKPGQAPRLLIYGASARATGIPARFSGSGSGTEFTLTISSLQPEDIALYFCQQDFHPYTFGQGTKLEIK"}, "B21": {"name": "D123 (antibody, V domains shown)", "VH": "EVQLVESGGGLVQPGRSLRLSCAASGFIFDDYAMHWVRQVPGKGLEWVSGISWNGGIIGQADSVKGRFTISRDNAKNSLYLQMNNLRAEDTALYFCTKDVGPGSPNYFDSWGQGTLVTVSS", "VL": "DIQMTQSPSTLSASVGDRVTITCRASQSISSWLAWYQQKPGKAPKFLIYKTSNLENGVPSRFSGSGSGTEFTLTISSLQPDDFATYFCQEYITNSRTFGQGTRLEIK"}, "B22": {"name": "D161 (antibody, V domains shown)", "VH": "EVQLLESGGGLVQPGGSLRLSCAASGFTFSSYAMSWVRQAPGKGLEWVSAISGSGGSTSYADSVKGRFTISRDNSKNTLYLQMNSLRVEDTAVYYCAKGPRVTTEYFEYWGQGTLVTVSS", "VL": "not shown"}, "B23": {"name": "D132 (antibody, V domains shown)", "VH": "EVQLVESGGGLVQPGRSLRLSCAASGFTFDDYAMHWVRQAPGKGLEWVSGISWNSGSIGYADSVKGRFTISRDNAKNSLYLQMNSLRNDDTALYYCAKGRIGGNYYLLDYWGQGTLVTVSS", "VL": "not shown"}, "B24": {"name": "D105 (antibody, V domains shown)", "VH": "QVQLQQWGAGLLKPSETLSLTCAVFGGSFSGYYWSWIRQPPGKGLEWIGEINHSGSTNYNPSLKSRVTLSVDTSKNQFSLELSSVTAADTAVYYCARVGPILFDYWGQGTLVTVSS", "VL": "QFVLTQPPSVSAAPGQKVTISCSGSSSNIGNNYVSWFQQLPGTAPKLLIYDNNMRPSRIPDRFSGSKSGTSATLGITGLQTGDEADYYCGTWDSSLSSVVFGGGTKLTVL"}, "B25": {"name": "D163 (antibody, V domains shown)", "VH": "QVQLVQSGAEVKKPGASVKVSCKASGYTFTSYYMHWVRQAPGQGLEWMGIINPSGGSTSYAQKFQGRVTMTRDTSTSTVYMELSSLRSEDTAVYYCARDFSLIPATAMVLDYWGQGTLVTVSS", "VL": "DIQMTQSPVSLSASVGDRVTITCRASQSISSWLAWYQQKPGKAPKLLIYKASSLESGVPSRFSGSGSGTEFTLTISSLQPDDFATYYCQQYNSYASFGQGTKVEIK"}, "B26": {"name": "D010 (antibody, V domains shown)", "VH": "EVQLVESGGGLVQPGRSLRLSCAAFGFTFDDYAMHWVRQAPGKGLEWVSGISWNSGSIGYADSVKGRFTISRDNAKNSLYLQMNSLRAEDTALYYCAKDITFRDGYPGAVDYWGQGTLVTVSS", "VL": "not shown"}}, "target": "SARS-CoV-2 spike RBD (WT) (Severe acute respiratory syndrome …, UniProt P0DTC2)", "experiment": "ELISA", "parameters": "unit not given here", "note": "Where a chain is given by its changes, count along the chain named."}
{"binder": "B1", "values": [{"measurement": "binding score", "value": 4670}]}
{"binder": "B2", "values": [{"measurement": "binding score", "value": 9930}]}
{"binder": "B3", "values": [{"measurement": "binding score", "value": "> 10000"}]}
{"binder": "B4", "values": [{"measurement": "binding score", "value": "> 10000"}]}
{"binder": "B5", "values": [{"measurement": "binding score", "value": 4730}]}
{"binder": "B6", "values": [{"measurement": "binding score", "value": "> 10000"}]}
{"binder": "B7", "values": [{"measurement": "binding score", "value": 2500}]}
{"binder": "B8", "values": [{"measurement": "binding score", "value": "> 10000"}]}
{"binder": "B9", "values": [{"measurement": "binding score", "value": 49}]}
{"binder": "B10", "values": [{"measurement": "binding score", "value": "> 10000"}]}
{"binder": "B11", "values": [{"measurement": "binding score", "value": 5250}]}
{"binder": "B12", "values": [{"measurement": "binding score", "value": "> 10000"}]}
{"binder": "B13", "values": [{"measurement": "binding score", "value": 376}]}
{"binder": "B14", "values": [{"measurement": "binding score", "value": "> 10000"}]}
{"binder": "B15", "values": [{"measurement": "binding score", "value": 491}]}
{"binder": "B16", "values": [{"measurement": "binding score", "value": 39.5}]}
{"binder": "B17", "values": [{"measurement": "binding score", "value": "> 10000"}]}
{"binder": "B18", "values": [{"measurement": "binding score", "value": "> 10000"}]}
{"binder": "B19", "values": [{"measurement": "binding score", "value": "> 10000"}]}
{"binder": "B20", "values": [{"measurement": "binding score", "value": "> 10000"}]}
{"binder": "B21", "values": [{"measurement": "binding score", "value": 7780}]}
{"binder": "B22", "values": [{"measurement": "binding score", "value": "> 10000"}]}
{"binder": "B23", "values": [{"measurement": "binding score", "value": 9490}]}
{"binder": "B24", "values": [{"measurement": "binding score", "value": 1340}]}
{"binder": "B25", "values": [{"measurement": "binding score", "value": "> 10000"}]}
{"binder": "B26", "values": [{"measurement": "binding score", "value": "> 10000"}]}
